# Measurements taken from IntAct's records for PubMed 15990873.
# B1: Protein MKS1 (Arabidopsis thaliana (Mouse-ear cress)), Q8LGD5 (parent)
# chain: MDPSEYFAGGNPSDQQNQKRQLQICGPRPSPLSVHKDSHKIKKPPKHPAPPPNRDQPPPYIPREPVVIYAVSPKVVHATASEFMNVVQRLTGISSGVFLESGGGGDVSPAARLASTENASPRGGKEPAARDETVEINTAMEEAAEFGGYAPGILSPSPALLPTASTGIFSPMYHQGGMFSPAIPLGLFSPAGFMSPFRSPGFTSLVASPTFADFFSHIWDQD
# partner: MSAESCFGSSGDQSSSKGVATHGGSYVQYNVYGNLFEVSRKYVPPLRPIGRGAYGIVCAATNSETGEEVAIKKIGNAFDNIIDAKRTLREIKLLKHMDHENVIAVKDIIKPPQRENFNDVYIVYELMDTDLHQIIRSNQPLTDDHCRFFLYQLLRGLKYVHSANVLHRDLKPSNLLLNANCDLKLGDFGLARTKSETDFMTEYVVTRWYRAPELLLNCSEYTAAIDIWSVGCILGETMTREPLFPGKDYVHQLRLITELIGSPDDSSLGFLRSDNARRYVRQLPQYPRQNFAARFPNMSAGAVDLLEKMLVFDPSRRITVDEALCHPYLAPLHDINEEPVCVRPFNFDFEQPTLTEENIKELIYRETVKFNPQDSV
# Variants of: B1
# Conditions: with mpk4_arath MPK4, Q39024
row,Variant,effect of a mutation on the interaction
1,MDPSEYFAGGNPSDQQNQKRQLQICGPRPAPLSVHKDSHKIKKPPKHPAPPPNRDQPPPYIPREPVVIYAVSPKVVHATASEFMNVVQRLTGISSGVFLESGGGGDVSPAARLASTENASPRGGKEPAARDETVEINTAMEEAAEFGGYAPGILSPSPALLPTASTGIFSPMYHQGGMFSPAIPLGLFSPAGFMSPFRSPGFTSLVASPTFADFFSHIWDQD [S30A],decreasing interaction
